From patent US20120329854

B1: baculovirus expressed and purified GST-JARID1B (protein)
chain: MEAATTLHPGPRPALPLGGPGPLGEFLPPPECPVFEPSWEEFADPFAFIHKIRPIAEQTGICKVRPPPDWQPPFACDVDKLHFTPRIQRLNELEAQTRVKLNFLDQIAKYWELQGSTLKIPHVERKILDLFQLNKLVAEEGGFAVVCKDRKWTKIATKMGFAPGKAVGSHIRGHYERILNPYNLFLSGDSLRCLQKPNLTTDTKDKEYKPHDIPQRQSVQPSETCPPARRAKRMRAEAMNIKIEPEETTEARTHNLRRRMGCPTPKCENEKEMKSSIKQEPIERKDYIVENEKEKPKSRSKKATNAVDLYVCLLCGSGNDEDRLLLCDGCDDSYHTFCLIPPLHDVPKGDWRCPKCLAQECSKPQEAFGFEQAARDYTLRTFGEMADAFKSDYFNMPVHMVPTELVEKEFWRLVSTIEEDVTVEYGADIASKEFGSGFPVRDGKIKLSPEEEEYLDSGWNLNNMPVMEQSVLAHITADICGMKLPWLYVGMCFSSFCWHIEDHWSYSINYLHWGEPKTWYGVPGYAAEQLENVMKKLAPELFVSQPDLLHQLVTIMNPNTLMTHEVPVYRTNQCAGEFVITFPRAYHSGFNQGFNFAEAVNFCTVDWLPLGRQCVEHYRLLHRYCVFSHDEMICKMASKADVLDVVVASTVQKDMAIMIEDEKALRETVRKLGVIDSERMDFELLPDDERQCVKCKTTCFMSAISCSCKPGLLVCLHHVKELCSCPPYKYKLRYRYTLDDLYPMMNALKLRAESYNEWALNVNEALEAKINKKKSLVSFKALIEESEMKKFPDNDLLRHLRLVTQDAEKCASVAQQLLNGKRQTRYRSGGGKSQNQLTVNELRQFVTQLYALPCVLSQTPLLKDLLNRVEDFQQHSQKLLSEETPSAAELQDLLDVSFEFDVELPQLAEMRIRLEQARWLEEVQQACLDPSSLTLDDMRRLIDLGVGLAPYSAVEKAMARLQELLTVSEHWDDKAKSLLKARPRHSLNSLATAVKEIEEIPAYLPNGAALKDSVQRARDWLQDVEGLQAGGRVPVLDTLIELVTRGRSIPVHLNSLPRLETLVAEVQAWKECAVNTFLTENSPYSLLEVLCPRCDIGLLGLKRKQRKLKEPLPNGKKKSTKLESLSDLERALTESKETASAMATLGEARLREMEALQSLRLANEGKLLSPLQDVDIKICLCQKAPAAPMIQCELCRDAFHTSCVAVPSISQGLRIWLCPHCRRSEKPPLEKILPLLASLQRIRVRLPEGDALRYMIERTVNWQHRAQQLLSSGNLKFVQDRVGSGLLYSRWQASAGQVSDTNKVSQPPGTTSFSLPDDWDNRTSYLHSPFSTGRSCIPLHGVSPEVNELLMEAQLLQVSLPEIQELYQTLLAKPSPAQQTDRSSPVRPSSEKNDCCRGKRDGINSLERKLKRRLEREGLSSERWERVKKMRTPKKKKIKLSHPKDMNNFKLERERSYELVRSAETHSLPSDTSYSEQEDSEDEDAICPAVSCLQPEGDEVDWVQCDGSCNQWFHQVCVGVSPEMAEKEDYICVRCTVKDAPSRK
B2: purified recombinant active PKCζ (ProQinase) (protein)
chain: MPSRTGPKMEGSGGRVRLKAHYGGDIFITSVDAATTFEELCEEVRDMCRLHQQHPLTLKWVDSEGDPCTVSSQMELEEAFRLARQCRDEGLIIHVFPSTPEQPGLPCPGEDKSIYRRGARRWRKLYRANGHLFQAKRFNRRAYCGQCSERIWGLARQGYRCINCKLLVHKRCHGLVPLTCRKHMDSVMPSQEPPVDDKNEDADLPSEETDGIAYISSSRKHDSIKDDSEDLKPVIDGMDGIKISQGLGLQDFDLIRVIGRGSYAKVLLVRLKKNDQIYAMKVVKKELVHDDEDIDWVQTEKHVFEQASSNPFLVGLHSCFQTTSRLFLVIEYVNGGDLMFHMQRQRKLPEEHARFYAAEICIALNFLHERGIIYRDLKLDNVLLDADGHIKLTDYGMCKEGLGPGDTTSTFCGTPNYIAPEILRGEEYGFSVDWWALGVLMFEMMAGRSPFDIITDNPDMNTEDYLFQVILEKPIRIPRFLSVKASHVLKGFLNKDPKERLGCRPQTGFSDIKSHAFFRSIDWDLLEKKQALPPFQPQITDDYGLDNFDTQFTSEPVQLTPDDEDAIKRIDQSEFEGFEYINPLLLSTEESV
B3: purified recombinant active PKCµ (ProQinase) (protein)
chain: MSAPPVLRPPSPLLPVAAAAAAAAAALVPGSGPGPAPFLAPVAAPVGGISFHLQIGLSREPVLLLQDSSGDYSLAHVREMACSIVDQKFPECGFYGMYDKILLFRHDPTSENILQLVKAASDIQEGDLIEVVLSASATFEDFQIRPHALFVHSYRAPAFCDHCGEMLWGLVRQGLKCEGCGLNYHKRCAFKIPNNCSGVRRRRLSNVSLTGVSTIRTSSAELSTSAPDEPLLQKSPSESFIGREKRSNSQSYIGRPIHLDKILMSKVKVPHTFVIHSYTRPTVCQYCKKLLKGLFRQGLQCKDCRFNCHKRCAPKVPNNCLGEVTINGDLLSPGAESDVVMEEGSDDNDSERNSGLMDDMEEAMVQDAEMAMAECQNDSGEMQDPDPDHEDANRTISPSTSNNIPLMRVVQSVKHTKRKSSTVMKEGWMVHYTSKDTLRKRHYWRLDSKCITLFQNDTGSRYYKEIPLSEILSLEPVKTSALIPNGANPHCFEITTANVVYYVGENVVNPSSPSPNNSVLTSGVGADVARMWEIAIQHALMPVIPKGSSVGTGTNLHRDISVSISVSNCQIQENVDISTVYQIFPDEVLGSGQFGIVYGGKHRKTGRDVAIKIIDKLRFPTKQESQLRNEVAILQNLHHPGVVNLECMFETPERVFVVMEKLHGDMLEMILSSEKGRLPEHITKFLITQILVALRHLHFKNIVHCDLKPENVLLASADPFPQVKLCDFGFARIIGEKSFRRSVVGTPAYLAPEVLRNKGYNRSLDMWSVGVIIYVSLSGTFPFNEDEDIHDQIQNAAFMYPPNPWKEISHEAIDLINNLLQVKMRKRYSVDKTLSHPWLQDYQTWLDLRELECKIGERYITHESDDLRWEKYAGEQGLQYPTHLINPSASHSDTPETEETEMKALGERVSIL
B4: purified recombinant active PKCι (ProQinase) (protein)
chain: MSHTVAGGGSGDHSHQVRVKAYYRGDIMITHFEPSISFEGLCNEVRDMCSFDNEQLFTMKWIDEEGDPCTVSSQLELEEAFRLYELNKDSELLIHVFPCVPERPGMPCPGEDKSIYRRGARRWRKLYCANGHTFQAKRFNRRAHCAICTDRIWGLGRQGYKCINCKLLVHKKCHKLVTIECGRHSLPQEPVMPMDQSSMHSDHAQTVIPYNPSSHESLDQVGEEKEAMNTRESGKASSSLGLQDFDLLRVIGRGSYAKVLLVRLKKTDRIYAMKVVKKELVNDDEDIDWVQTEKHVFEQASNHPFLVGLHSCFQTESRLFFVIEYVNGGDLMFHMQRQRKLPEEHARFYSAEISLALNYLHERGIIYRDLKLDNVLLDSEGHIKLTDYGMCKEGLRPGDTTSTFCGTPNYIAPEILRGEDYGFSVDWWALGVLMFEMMAGRSPFDIVGSSDNPDQNTEDYLFQVILEKQIRIPRSLSVKAASVLKSFLNKDPKERLGCHPQTGFADIQGHPFFRNVDWDMMEQKQVVPPFKPNISGEFGLDNFDSQFTNEPVQLTPDDDDIVRKIDQSEFEGFEYINPLLMSAEECV

Experiments:
[1] = molecular target: H3K4me2T6ph peptide (H3 tail residues 1-20), P68431
[2] = molecular target: H3K4me3T6ph peptide (H3 tail residues 1-20), P68431
[3] = molecular target: H3K4me3 peptide (H3 tail residues 1-20), P68431
[4] = molecular target: H3K4me2 peptide (H3 tail residues 1-20), P68431
[5] = molecular target: histone H3 in untreated nucleosomes purified from HeLa cells, P68431

Protein	demethylation assay, mass spectrometry [1]	demethylation assay, mass spectrometry [2]	demethylation assay, mass spectrometry [3]	demethylation assay, mass spectrometry [4]	phosphorylation of nucleosomes at H3T6 (in vitro kinase assay, Western blot with α-H3T6ph) [5]
B1	demethylation of tri- and dimethyl H3K4 peptides phosphorylated at T6 (H3K4me3T6ph and H3K4me2T6ph) is severely impaired	demethylation of tri- and dimethyl H3K4 peptides phosphorylated at T6 (H3K4me3T6ph and H3K4me2T6ph) is severely impaired	Recombinant, purified JARID1B (FIG. 9) efficiently demethylates H3K4me3 and H3K4me2 peptides	Recombinant, purified JARID1B (FIG. 9) efficiently demethylates H3K4me3 and H3K4me2 peptides	
B2					only PKCα, 131 and 132 phosphorylate nucleosomes at H3T6 (PKCζ tested, no phosphorylation)
B3					only PKCα, 131 and 132 phosphorylate nucleosomes at H3T6 (PKCµ tested, no phosphorylation)
B4					only PKCα, 131 and 132 phosphorylate nucleosomes at H3T6 (PKCι tested, no phosphorylation)
